B1: LINE1-mini (parent)
chain: GGCAGAGCUCAACACAGCGUGGCAAAGUGGCUGUGGCUAGACUGCC

Variants of: B1
Test: self-cleavage, relative activity (ratio to wild type); higher = more cleavage; in vitro, sequencing; the parent is a self-cleaving ribozyme

Variant | self-cleavage
A26U G44A | 0.64
A26U G44C | 0.64
A26U G44U | 0.41
G27A C46A | 1.19
G27A C46G | 1.05
G27A C46U | 2.06
G27A C42U | 0.26
G27A C42G | 0.05
G27A C42A | 0.21
A26U A39C | 0.25
A26U A39U | 2.46
A26U A39G | 0.22
A26G G44U | 0.3
A26G G44C | 0.28
A26G G44A | 0.31
A26G C31G | 0.06
A26G C31A | 0.11
A26G C31U | 0.15
A26U G29U | 1.61
A26U G29C | 0.35
A26U G29A | 1.35
A26C G40A | 0.12
A26C G40C | 0.07
A26C G40U | 0.09

Variant | self-cleavage
G27C C37U | 0.04
G27C C37A | 0.06
G27C C37G | 0.02
A26C U34C | 0.33
A26C U34G | 0.32
A26C U34A | 0.1
G27C C45G | 0.32
G27C C45A | 0.29
G27C C45U | 2.02
A26C U32C | 0.24
A26C U32G | 0.13
A26C U32A | 0.14
A26C G35A | 0.18
A26C G35U | 0.09
A26C G35C | 0.16
G27A G36A | 0.09
G27A G36C | 0.25
G27A G36U | 0.08
A26C G27U | 0.46
A26C G27C | 0.9
A26C G27A | 0.57
G27C G40C | 0.07
G27C G40A | 0.12
G27C G40U | 0.12

Variant | self-cleavage
G27C C42U | 0.11
G27C C42A | 0.07
G27C C42G | 0.09
A26U G35C | 0.09
A26U G35U | 0.16
A26U G35A | 0.24
G27A U43A | 0.08
G27A U43C | 0.37
G27A U43G | 0.05
A26C U28G | 0.66
A26C U28C | 0.4
A26C U28A | 0.53
G27U C37G | 0.03
G27U C37A | 0.03
G27U C37U | 0.07
G27C U32C | 0.12
G27C U32G | 0.08
G27C U32A | 0.09
A26U C37U | 0.08
A26U C37A | 0.08
A26U C37G | 0.05
G27A U38A | 0.28
G27A U38G | 0.02
G27A U38C | 0.26

Variant | self-cleavage
A26U C42A | 0.29
A26U C42G | 0.1
A26U C42U | 0.08
G27U A41C | 0.06
G27U A41G | 0.27
G27U A41U | 0.49
G27C U38C | 0.29
G27C U38A | 0.34
G27C U38G | 0.02
A26G G29A | 0.36
A26G G29U | 1.23
A26G G29C | 0.89
A26C U38C | 0.83
A26C U38A | 1.02
A26C U38G | 0.03
A26C C45U | 1.17
A26C C45A | 0.8
A26C C45G | 0.8
G27C A41U | 0.25
G27C A41C | 0.03
G27C A41G | 0.25
G27A C37U | 0.05
G27A C37A | 0.05
G27A C37G | 0.02

Variant | self-cleavage
G27C C46G | 0.59
G27C C46A | 0.71
G27C C46U | 1.09
G27U G35A | 0.18
A26U C46G | 1.18
A26U C46A | 0.77
A26U C46U | 2.38
G27A C45U | 1.88
G27A C45A | 0.79
G27A C45G | 0.51
G27C G44C | 0.14
G27C G44A | 0.47
G27C G44U | 0.38
A26G C45G | 0.31
A26G C45A | 1.06
A26G C45U | 0.77
A26U C45A | 1.95
A26U C45U | 0.83
A26U C45G | 0.64
G27C | 0.72
G27U | 0.83
G27A | 0.81
A26C G33C | 0.07
A26C G33U | 0.08

Variant | self-cleavage
A26C G33A | 0.17
G27C G36A | 0.35
G27C G36C | 0.09
G27C G36U | 0.05
A26G C37A | 0.02
A26G C37G | 0.03
A26G C37U | 0.04
A26U U32C | 0.11
A26U U32G | 0.36
A26U U32A | 0.11
G27A G33A | 0.1
G27A G33C | 0.08
G27A G33U | 0.17
G27U C46G | 0.76
G27U C46A | 1.11
G27U C46U | 1.05
A26C G29C | 0.37
A26C G29U | 0.54
A26U C31G | 0.08
A26U C31A | 0.14
A26U C31U | 0.18
G27A G40A | 0.18
G27A G40C | 0.17
G27A G40U | 0.14

Variant | self-cleavage
A26C G30A | 1.12
A26C G30U | 1.45
A26U A41C | 0.07
A26U A41G | 0.37
A26U A41U | 0.75
G27U C45G | 0.37
G27U C45U | 1.6
G27U C45A | 0.92
G27A U34A | 0.19
G27A U34C | 0.13
G27A U34G | 0.32
G27A A39G | 0.08
G27A A39U | 0.59
G27A A39C | 0.11
A26U U43A | 0.08
A26U U43C | 0.12
A26U U43G | 0.09
G27A A41G | 0.38
G27A A41C | 0.04
G27A A41U | 0.49
A26G G33U | 0.07
A26G G33C | 0.08
A26G G33A | 0.09
